Source: paper PMC10904736, “A c-di-GMP signaling module controls responses to iron in Pseudomonas aeruginosa” (Nature Communications, 2024)

B1: CHASE4 domain of IsmP (CHASE4^IsmP) (domain or fragment)
chain: not shown
notes: CHASE4 domain of IsmP (PA2072) of Pseudomonas aeruginosa PAO1; interface residues Q51, W55 and P247 lie outside 59-220; also called CHASE4 (IsmP^40-255); source: E. coli BL21, purified (HisTrap HP)
B2: PA1851 protein (purified ImcA) (natural protein)
chain: MLARDSLVQAGLPDNPYARQLRNGFRWLRFEKELENEFREFLSWNSLMQRRAAIGVAFLIWALFIVADWMMVDIRLHPSLFEQLLGVRLGMIGLLLVVWPAAFLPSLRKVGDAIAPYCLLLINLAVLACDVLFEWHGVPRFTQLGATLGILAVFFPLGLAFWACVRLALLCLALNLAVFLLFGGEENLRTNLLNTLYNGLVVLICSFALYLQDYAQREQFLGRRLLGMMAEQDSLTGLVNRRYYELLAQRALEQGAREEKGVALILVDVDDFKAYNDHYGHPAGDAALRQLGVVLRQGARRPLDIAARLGGEEFAVLLYDSEEGNTLAIAERLRQAVEALGIEHLGSSAGPCLTISLGVAYSTSGMGLDALYREADRALYEAKDAGRNAVRVAFRQHDRLE
notes: ImcA (PA1851) of Pseudomonas aeruginosa PAO1; 6TM domain L47-E231, GGDEF domain R241-A393; Homodimer in the cryo-EM structure with GMPCPP; source: E. coli BL21 (DE3), purified (membrane fraction, DDM, Strep-Tactin, Superose 6)

How the values were obtained:
[1] = target: the molecule itself; experiment: SEC + native gel or EMSA; purified CHASE4 domain in solvent
[2] = target: the molecule itself; experiment: cryo-EM structure; ImcA with the substrate analog GMPCPP, 10 mg/ml, 3.07 Å, C2 symmetry

| Protein | stoichiometry N [1] | binding result [2] |
| --- | --- | --- |
| B1 | 2 |  |
| B2 |  | binds |
